Experimental data: US20150283214A1

Target: α5β1 integrin on mouse embryonic fibronectin-null fibroblasts (mouse) (UniProt P11688)
Test: cell-based or functional assay

α5β1 integrin on mouse embryonic fibronectin-null fibroblasts (mouse), sequence (P11688 45-1053, chain 1 of 2): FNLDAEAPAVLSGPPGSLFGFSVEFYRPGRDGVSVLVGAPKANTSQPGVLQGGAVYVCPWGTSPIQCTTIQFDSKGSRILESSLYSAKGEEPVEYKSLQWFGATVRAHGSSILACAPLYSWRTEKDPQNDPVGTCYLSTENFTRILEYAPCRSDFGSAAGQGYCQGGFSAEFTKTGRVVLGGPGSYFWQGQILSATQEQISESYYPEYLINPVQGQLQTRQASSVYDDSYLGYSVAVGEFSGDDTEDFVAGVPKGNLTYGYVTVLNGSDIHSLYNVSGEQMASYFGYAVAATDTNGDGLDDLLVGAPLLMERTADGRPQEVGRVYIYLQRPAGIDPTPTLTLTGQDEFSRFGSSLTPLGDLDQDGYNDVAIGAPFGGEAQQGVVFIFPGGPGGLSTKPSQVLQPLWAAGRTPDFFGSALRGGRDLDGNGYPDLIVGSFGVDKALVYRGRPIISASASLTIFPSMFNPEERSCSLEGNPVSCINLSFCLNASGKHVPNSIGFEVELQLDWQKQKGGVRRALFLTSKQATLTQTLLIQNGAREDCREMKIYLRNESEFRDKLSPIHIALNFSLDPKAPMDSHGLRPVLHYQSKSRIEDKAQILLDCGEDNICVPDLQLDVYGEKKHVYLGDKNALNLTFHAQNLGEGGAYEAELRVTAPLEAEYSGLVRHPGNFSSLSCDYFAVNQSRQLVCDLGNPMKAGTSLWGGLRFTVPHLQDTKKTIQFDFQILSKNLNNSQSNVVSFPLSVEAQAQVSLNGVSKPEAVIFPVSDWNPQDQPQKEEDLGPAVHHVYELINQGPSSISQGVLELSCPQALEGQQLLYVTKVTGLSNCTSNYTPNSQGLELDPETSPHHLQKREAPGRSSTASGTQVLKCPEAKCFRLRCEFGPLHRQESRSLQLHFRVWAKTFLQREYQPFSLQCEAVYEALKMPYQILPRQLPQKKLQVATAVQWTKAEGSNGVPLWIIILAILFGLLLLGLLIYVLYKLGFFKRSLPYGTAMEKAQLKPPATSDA
α5β1 integrin on mouse embryonic fibronectin-null fibroblasts (mouse), sequence (P09055 21-798, chain 2 of 2, further chain): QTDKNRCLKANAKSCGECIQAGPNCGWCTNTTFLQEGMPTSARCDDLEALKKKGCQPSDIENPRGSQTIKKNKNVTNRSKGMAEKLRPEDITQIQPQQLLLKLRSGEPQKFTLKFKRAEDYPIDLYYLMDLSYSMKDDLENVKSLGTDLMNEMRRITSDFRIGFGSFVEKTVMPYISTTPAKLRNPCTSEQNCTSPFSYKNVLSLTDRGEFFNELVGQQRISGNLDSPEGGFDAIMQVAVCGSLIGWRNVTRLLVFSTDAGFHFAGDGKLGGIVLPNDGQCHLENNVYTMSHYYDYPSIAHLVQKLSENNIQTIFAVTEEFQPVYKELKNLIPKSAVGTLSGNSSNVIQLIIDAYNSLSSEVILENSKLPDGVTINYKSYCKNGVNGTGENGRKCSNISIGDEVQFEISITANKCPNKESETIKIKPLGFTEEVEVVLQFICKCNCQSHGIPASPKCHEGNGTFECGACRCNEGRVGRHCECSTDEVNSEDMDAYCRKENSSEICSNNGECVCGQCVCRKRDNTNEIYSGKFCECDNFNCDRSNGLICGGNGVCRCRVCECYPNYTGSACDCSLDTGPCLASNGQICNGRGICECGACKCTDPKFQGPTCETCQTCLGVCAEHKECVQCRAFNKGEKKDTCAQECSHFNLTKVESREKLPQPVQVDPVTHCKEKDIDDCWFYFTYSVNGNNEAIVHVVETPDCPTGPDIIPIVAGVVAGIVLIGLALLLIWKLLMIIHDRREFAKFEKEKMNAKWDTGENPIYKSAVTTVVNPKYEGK
Human plasma fibronectin, P02751 32-2477 (other; Alexa^488 label where used as FN^488), sequence (P02751 other isoform, or with tags, fused parts or gaps): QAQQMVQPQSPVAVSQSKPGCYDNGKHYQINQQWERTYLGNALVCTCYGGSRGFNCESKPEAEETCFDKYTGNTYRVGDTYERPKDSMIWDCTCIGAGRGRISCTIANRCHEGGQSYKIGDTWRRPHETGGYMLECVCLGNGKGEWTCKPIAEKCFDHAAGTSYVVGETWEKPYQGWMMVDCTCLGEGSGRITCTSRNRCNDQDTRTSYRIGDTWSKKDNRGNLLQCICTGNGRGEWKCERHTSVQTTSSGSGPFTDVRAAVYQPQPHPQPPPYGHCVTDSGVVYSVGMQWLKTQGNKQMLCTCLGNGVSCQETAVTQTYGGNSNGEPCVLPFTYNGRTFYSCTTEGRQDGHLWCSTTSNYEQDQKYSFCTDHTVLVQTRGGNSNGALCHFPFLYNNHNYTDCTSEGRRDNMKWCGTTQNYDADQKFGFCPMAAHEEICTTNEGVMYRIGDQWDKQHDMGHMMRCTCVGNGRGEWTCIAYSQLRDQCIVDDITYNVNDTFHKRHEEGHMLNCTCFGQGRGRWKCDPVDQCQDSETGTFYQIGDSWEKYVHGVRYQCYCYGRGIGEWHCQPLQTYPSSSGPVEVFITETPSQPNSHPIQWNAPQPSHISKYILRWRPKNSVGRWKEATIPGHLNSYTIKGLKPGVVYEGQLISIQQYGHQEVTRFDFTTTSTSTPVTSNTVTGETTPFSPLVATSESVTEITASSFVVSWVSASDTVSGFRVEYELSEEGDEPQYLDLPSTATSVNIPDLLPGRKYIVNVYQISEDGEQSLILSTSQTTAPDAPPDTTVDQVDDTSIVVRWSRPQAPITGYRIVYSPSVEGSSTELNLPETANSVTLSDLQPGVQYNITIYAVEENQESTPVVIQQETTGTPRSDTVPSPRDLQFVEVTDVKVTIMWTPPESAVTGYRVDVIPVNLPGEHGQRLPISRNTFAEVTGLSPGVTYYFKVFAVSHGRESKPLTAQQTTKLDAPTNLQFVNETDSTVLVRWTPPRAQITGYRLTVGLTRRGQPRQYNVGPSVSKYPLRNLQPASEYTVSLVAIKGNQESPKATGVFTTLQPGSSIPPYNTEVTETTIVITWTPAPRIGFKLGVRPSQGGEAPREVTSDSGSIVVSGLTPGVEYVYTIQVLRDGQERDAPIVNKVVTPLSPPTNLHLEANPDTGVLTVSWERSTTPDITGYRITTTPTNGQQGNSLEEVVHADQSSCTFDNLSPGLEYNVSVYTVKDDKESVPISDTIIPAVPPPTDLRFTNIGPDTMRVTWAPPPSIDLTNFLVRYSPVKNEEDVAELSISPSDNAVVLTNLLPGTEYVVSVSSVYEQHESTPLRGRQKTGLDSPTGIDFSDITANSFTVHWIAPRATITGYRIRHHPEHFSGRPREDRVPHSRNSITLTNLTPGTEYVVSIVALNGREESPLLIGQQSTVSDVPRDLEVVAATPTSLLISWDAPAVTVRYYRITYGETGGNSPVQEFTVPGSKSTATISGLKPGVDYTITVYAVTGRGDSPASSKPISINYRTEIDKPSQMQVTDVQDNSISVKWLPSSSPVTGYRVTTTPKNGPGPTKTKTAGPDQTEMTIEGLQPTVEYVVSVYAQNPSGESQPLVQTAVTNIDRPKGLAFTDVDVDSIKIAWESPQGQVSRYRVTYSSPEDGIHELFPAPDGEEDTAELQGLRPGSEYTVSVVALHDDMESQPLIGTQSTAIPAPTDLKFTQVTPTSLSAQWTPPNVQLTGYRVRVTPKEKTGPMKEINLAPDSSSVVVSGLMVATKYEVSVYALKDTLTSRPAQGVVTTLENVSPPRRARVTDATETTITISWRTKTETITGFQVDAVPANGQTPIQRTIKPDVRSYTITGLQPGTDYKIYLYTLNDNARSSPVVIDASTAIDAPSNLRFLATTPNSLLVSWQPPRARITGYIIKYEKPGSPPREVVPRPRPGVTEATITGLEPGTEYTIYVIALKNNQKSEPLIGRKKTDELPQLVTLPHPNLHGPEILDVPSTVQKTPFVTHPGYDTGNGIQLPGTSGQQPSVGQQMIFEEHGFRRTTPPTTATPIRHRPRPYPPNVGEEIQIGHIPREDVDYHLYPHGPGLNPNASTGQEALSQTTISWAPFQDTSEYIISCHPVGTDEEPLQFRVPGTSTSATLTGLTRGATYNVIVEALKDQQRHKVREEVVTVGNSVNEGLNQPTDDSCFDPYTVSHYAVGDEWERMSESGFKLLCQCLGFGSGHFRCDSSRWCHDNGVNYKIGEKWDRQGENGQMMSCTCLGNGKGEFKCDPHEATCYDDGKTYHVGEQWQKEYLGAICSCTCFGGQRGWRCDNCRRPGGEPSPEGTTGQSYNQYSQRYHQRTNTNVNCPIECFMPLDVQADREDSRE

- reduction of FN-null MEF adhesion to full-length fibronectin by α5 integrin-blocking antibody: 53%
- reduction of FN-null MEF adhesion to full-length fibronectin by β1 integrin-blocking antibody: 71.3%
Substance: Human plasma fibronectin, P02751 32-2477 (other; Alexa^488 label where used as FN^488)
